Measured values reported in the MegaScale stability set (Tsuboyama et al. 2023).

B1: 1ZHC (parent)
chain: HEFRDEISVLKANNPHFDKIFEKHNQLDDDIKTAEQQNASDAEVSHMKKQKLKLKDEIHSMIIEYREK

Variants of: B1
Test: folding stability dG (cDNA display proteolysis); higher = more stable
Details: PBS, room temperature

Row | Variant | folding stability dG [kcal/mol]
1 | HEFRDEISVLKANNPHFDKIFEKHNQWDDDIKTAEQQNASDAEVSHMKKQKLKLKDEIHSMIIEYREK [L27W] | -0.576
2 | HEFRDEISVLKANNPHFDKIFEKHNQCDDDIKTAEQQNASDAEVSHMKKQKLKLKDEIHSMIIEYREK [L27C] | 0.277
3 | HEFRDEISVLKANNPHFDKIFEKHNQIDDDIKTAEQQNASDAEVSHMKKQKLKLKDEIHSMIIEYREK [L27I] | 0.13
4 | HEFRDEISVLKANNPHFDKIFEKHNQFDDDIKTAEQQNASDAEVSHMKKQKLKLKDEIHSMIIEYREK [L27F] | 0.005
5 | HEFRDEISVLKANNPHFDKIFEKHNQYDDDIKTAEQQNASDAEVSHMKKQKLKLKDEIHSMIIEYREK [L27Y] | -0.311
6 | HEFRDEISVLKANNPHFDKIFEKHNQVDDDIKTAEQQNASDAEVSHMKKQKLKLKDEIHSMIIEYREK [L27V] | 0.331
7 | HEFRDEISVLKANNPHFDKIFEKHNQMDDDIKTAEQQNASDAEVSHMKKQKLKLKDEIHSMIIEYREK [L27M] | 0.198
8 | HEFRDEISVLKANNPHFDKIFEYHNQLDDDIKTAEQQNASDAEVSHMKKQKLKLKDEIHSMIIEYREK [K23Y] | 1.02
9 | HEFRDEISVLKANNPHFDKIFETHNQLDDDIKTAEQQNASDAEVSHMKKQKLKLKDEIHSMIIEYREK [K23T] | 0.355
10 | HEFRDEISVLKANNPHFDKIFERHNQLDDDIKTAEQQNASDAEVSHMKKQKLKLKDEIHSMIIEYREK [K23R] | 0.933
11 | HEFRDEISVLKANNPHFDKIFESHNQLDDDIKTAEQQNASDAEVSHMKKQKLKLKDEIHSMIIEYREK [K23S] | 0.339
12 | HEFRDEISVLKANNPHFDKIFEWHNQLDDDIKTAEQQNASDAEVSHMKKQKLKLKDEIHSMIIEYREK [K23W] | 1.28
13 | HEFRDEISVLKANNPHFDKIFEQHNQLDDDIKTAEQQNASDAEVSHMKKQKLKLKDEIHSMIIEYREK [K23Q] | 1.33
14 | HEFRDEISVLKANNPHFDKIFEVHNQLDDDIKTAEQQNASDAEVSHMKKQKLKLKDEIHSMIIEYREK [K23V] | 0.152
15 | HEFRDEISVLKANNPHFDKIFEKHNYLDDDIKTAEQQNASDAEVSHMKKQKLKLKDEIHSMIIEYREK [Q26Y] | -0.902
16 | HEFRDEISVLKANNPHFDKIFEKHNILDDDIKTAEQQNASDAEVSHMKKQKLKLKDEIHSMIIEYREK [Q26I] | -0.025
17 | HEFRDEISVLKANNPHFDKIFEKHNKLDDDIKTAEQQNASDAEVSHMKKQKLKLKDEIHSMIIEYREK [Q26K] | 1.07
18 | HEFRDEISVLKANNPHFDKIFEKHNLLDDDIKTAEQQNASDAEVSHMKKQKLKLKDEIHSMIIEYREK [Q26L] | 0.746
19 | HEFRDEISVLKANNPHFDKIFEKHNALDDDIKTAEQQNASDAEVSHMKKQKLKLKDEIHSMIIEYREK [Q26A] | 0.273
20 | HEFRDEISVLKANNPHFDKIFEKHNTLDDDIKTAEQQNASDAEVSHMKKQKLKLKDEIHSMIIEYREK [Q26T] | 0.215
21 | HEFRDEISVLKANNPHFDKIFEKHNWLDDDIKTAEQQNASDAEVSHMKKQKLKLKDEIHSMIIEYREK [Q26W] | -0.614
22 | HEFRDEISVLKANNPHFDKIFEKHNRLDDDIKTAEQQNASDAEVSHMKKQKLKLKDEIHSMIIEYREK [Q26R] | 1.28
23 | HEFRDEISVLKANNPHFDKIFEKHNDLDDDIKTAEQQNASDAEVSHMKKQKLKLKDEIHSMIIEYREK [Q26D] | 0.206
24 | HEFRDEISVLKANNPHFDKIFEKHNFLDDDIKTAEQQNASDAEVSHMKKQKLKLKDEIHSMIIEYREK [Q26F] | -0.21
25 | HEFRDEISVLKANNPHFDKIFEKHNVLDDDIKTAEQQNASDAEVSHMKKQKLKLKDEIHSMIIEYREK [Q26V] | -0.13
26 | HEFRDEISVLKANNPHFDKIFEKHNSLDDDIKTAEQQNASDAEVSHMKKQKLKLKDEIHSMIIEYREK [Q26S] | 0.329
27 | HEFRDEISVLKANNPHFDKIFEKHNHLDDDIKTAEQQNASDAEVSHMKKQKLKLKDEIHSMIIEYREK [Q26H] | -0.231

Row | Variant | folding stability dG [kcal/mol]
28 | HEFRDEISVLKANNPHFDKIFEKHNELDDDIKTAEQQNASDAEVSHMKKQKLKLKDEIHSMIIEYREK [Q26E] | -0.511
29 | HEFRDEISVLKANNPHFDKIFEKHNCLDDDIKTAEQQNASDAEVSHMKKQKLKLKDEIHSMIIEYREK [Q26C] | -0.127
30 | HEFRDEISVLKANNPHFDKIFEKHNMLDDDIKTAEQQNASDAEVSHMKKQKLKLKDEIHSMIIEYREK [Q26M] | -0.061
31 | HEFRDEISVLKANNPHFDKIFEKHNNLDDDIKTAEQQNASDAEVSHMKKQKLKLKDEIHSMIIEYREK [Q26N] | 0.184
32 | HEFRDEISVLKANNPHFDKIFEKHNQLWDDIKTAEQQNASDAEVSHMKKQKLKLKDEIHSMIIEYREK [D28W] | 0.731
33 | HEFRDEISVLKANNPHFDKIFEKHNQLADDIKTAEQQNASDAEVSHMKKQKLKLKDEIHSMIIEYREK [D28A] | 1.37
34 | HEFRDEISVLKANNPHFDKIFEKHNQLKDDIKTAEQQNASDAEVSHMKKQKLKLKDEIHSMIIEYREK [D28K] | 0.414
35 | HEFRDEISVLKANNPHFDKIFEKHNQLVDDIKTAEQQNASDAEVSHMKKQKLKLKDEIHSMIIEYREK [D28V] | 1.29
36 | HEFRDEISVLKANNPHFDKIFEKHNQLHDDIKTAEQQNASDAEVSHMKKQKLKLKDEIHSMIIEYREK [D28H] | 0.757
37 | HEFRDEISVLKANNPHFDKIFEKHNQLTDDIKTAEQQNASDAEVSHMKKQKLKLKDEIHSMIIEYREK [D28T] | 1.48
38 | HEFRDEISVLKANNPHFDKIFEKHNQLGDDIKTAEQQNASDAEVSHMKKQKLKLKDEIHSMIIEYREK [D28G] | 0.786
39 | HEFRDEISVLKANNPHFDKIFEKHNQLYDDIKTAEQQNASDAEVSHMKKQKLKLKDEIHSMIIEYREK [D28Y] | 0.56
40 | HEFRDEISVLKANNPHFDKIFEKHNQLLDDIKTAEQQNASDAEVSHMKKQKLKLKDEIHSMIIEYREK [D28L] | 0.945
41 | HEFRDEISVLKANNPHFDKIFEKHNQLFDDIKTAEQQNASDAEVSHMKKQKLKLKDEIHSMIIEYREK [D28F] | 0.297
42 | HEFRDEISVLKANNPHFDKIFEKHNQLEDDIKTAEQQNASDAEVSHMKKQKLKLKDEIHSMIIEYREK [D28E] | 1.18
43 | HEFRDEISVLKANNPHFDKIFEKHNQLMDDIKTAEQQNASDAEVSHMKKQKLKLKDEIHSMIIEYREK [D28M] | 1.21
44 | HEFRDEISVLKANNPHFDKIFEKHNQLIDDIKTAEQQNASDAEVSHMKKQKLKLKDEIHSMIIEYREK [D28I] | 1.13
45 | HEFRDEISVLKANNPHFDKIFEKHNQLSDDIKTAEQQNASDAEVSHMKKQKLKLKDEIHSMIIEYREK [D28S] | 0.804
46 | HEFRDEISVLKANNPHFDKIFEKHNQLQDDIKTAEQQNASDAEVSHMKKQKLKLKDEIHSMIIEYREK [D28Q] | 0.794
47 | HEFRDEISVLKANNPHFDKIFEKHNQLRDDIKTAEQQNASDAEVSHMKKQKLKLKDEIHSMIIEYREK [D28R] | 0.988
48 | HEFRDEISVLKANNPHFDKIFEKHQQLDDDIKTAEQQNASDAEVSHMKKQKLKLKDEIHSMIIEYREK [N25Q] | 1.29
49 | HEFRDEISVLKANNPHFDKIFEKHYQLDDDIKTAEQQNASDAEVSHMKKQKLKLKDEIHSMIIEYREK [N25Y] | 0.277
50 | HEFRDEISVLKANNPHFDKIFEKHCQLDDDIKTAEQQNASDAEVSHMKKQKLKLKDEIHSMIIEYREK [N25C] | 1.41
51 | HEFRDEISVLKANNPHFDKIFEKHMQLDDDIKTAEQQNASDAEVSHMKKQKLKLKDEIHSMIIEYREK [N25M] | 0.989
52 | HEFRDEISVLKANNPHFDKIFEKHWQLDDDIKTAEQQNASDAEVSHMKKQKLKLKDEIHSMIIEYREK [N25W] | 0.642
53 | HEFRDEISVLKANNPHFDKIFEKHVQLDDDIKTAEQQNASDAEVSHMKKQKLKLKDEIHSMIIEYREK [N25V] | 0.471
54 | HEFRDEISVLKANNPHFDKIFEKHHQLDDDIKTAEQQNASDAEVSHMKKQKLKLKDEIHSMIIEYREK [N25H] | 0.533

Row | Variant | folding stability dG [kcal/mol]
55 | HEFRDEISVLKANNPHFDKIFEKHDQLDDDIKTAEQQNASDAEVSHMKKQKLKLKDEIHSMIIEYREK [N25D] | 0.646
56 | HEFRDEISVLKANNPHFDKIFEKHRQLDDDIKTAEQQNASDAEVSHMKKQKLKLKDEIHSMIIEYREK [N25R] | 1.59
57 | HEFRDEISVLKANNPHFDKIFEKHKQLDDDIKTAEQQNASDAEVSHMKKQKLKLKDEIHSMIIEYREK [N25K] | 1.42
58 | HEFRDEISVLKANNPHFDKIFEKHGQLDDDIKTAEQQNASDAEVSHMKKQKLKLKDEIHSMIIEYREK [N25G] | -0.067
59 | HEFRDEISVLKANNPHFDKIFEKHAQLDDDIKTAEQQNASDAEVSHMKKQKLKLKDEIHSMIIEYREK [N25A] | 1.03
60 | HEFRDEISVLKANNPHFDKIFEKHLQLDDDIKTAEQQNASDAEVSHMKKQKLKLKDEIHSMIIEYREK [N25L] | 1.14
61 | HEFRDEISVLKANNPHFDKIFEKHEQLDDDIKTAEQQNASDAEVSHMKKQKLKLKDEIHSMIIEYREK [N25E] | 0.44
62 | HEFRDEISVLKANNPHFDKIFEKHIQLDDDIKTAEQQNASDAEVSHMKKQKLKLKDEIHSMIIEYREK [N25I] | 0.737
63 | HEFRDEISVLKANNPHFDKIFEKHSQLDDDIKTAEQQNASDAEVSHMKKQKLKLKDEIHSMIIEYREK [N25S] | 0.766
64 | HEFRDEISVLKANNPHFDKIFEKHFQLDDDIKTAEQQNASDAEVSHMKKQKLKLKDEIHSMIIEYREK [N25F] | 0.65
65 | HEFRDEISVLKANNPHFDKIFEKHTQLDDDIKTAEQQNASDAEVSHMKKQKLKLKDEIHSMIIEYREK [N25T] | 0.573
66 | HEFRDEISVLKANNPHFDKIFEKMNQLDDDIKTAEQQNASDAEVSHMKKQKLKLKDEIHSMIIEYREK [H24M] | 1.74
67 | HEFRDEISVLKANNPHFDKIFEKRNQLDDDIKTAEQQNASDAEVSHMKKQKLKLKDEIHSMIIEYREK [H24R] | -0.124
68 | HEFRDEISVLKANNPHFDKIFEKYNQLDDDIKTAEQQNASDAEVSHMKKQKLKLKDEIHSMIIEYREK [H24Y] | 2.15
69 | HEFRDEISVLKANNPHFDKIFEKANQLDDDIKTAEQQNASDAEVSHMKKQKLKLKDEIHSMIIEYREK [H24A] | 0.782
70 | HEFRDEISVLKANNPHFDKIFEKQNQLDDDIKTAEQQNASDAEVSHMKKQKLKLKDEIHSMIIEYREK [H24Q] | 0.285
71 | HEFRDEISVLKANNPHFDKIFEKLNQLDDDIKTAEQQNASDAEVSHMKKQKLKLKDEIHSMIIEYREK [H24L] | 1.68
72 | HEFRDEISVLKANNPHFDKIFEKKNQLDDDIKTAEQQNASDAEVSHMKKQKLKLKDEIHSMIIEYREK [H24K] | -0.319
73 | HEFRDEISVLKANNPHFDKIFEKFNQLDDDIKTAEQQNASDAEVSHMKKQKLKLKDEIHSMIIEYREK [H24F] | 2.06
74 | HEFRDEISVLKANNPHFDKIFEKWNQLDDDIKTAEQQNASDAEVSHMKKQKLKLKDEIHSMIIEYREK [H24W] | 1.64
75 | HEFRDEISVLKANNPHFDKIFEKVNQLDDDIKTAEQQNASDAEVSHMKKQKLKLKDEIHSMIIEYREK [H24V] | 0.939
76 | HEFRDEISVLKANNPHFDKIFEKSNQLDDDIKTAEQQNASDAEVSHMKKQKLKLKDEIHSMIIEYREK [H24S] | 0.609
77 | HEFRDEISVLKANNPHFDKIFEKTNQLDDDIKTAEQQNASDAEVSHMKKQKLKLKDEIHSMIIEYREK [H24T] | -0.497
78 | HEFRDEISVLKANNPHFDKIFEKCNQLDDDIKTAEQQNASDAEVSHMKKQKLKLKDEIHSMIIEYREK [H24C] | 1.86
79 | HEFRDEISVLKANNPHFDKIFEKINQLDDDIKTAEQQNASDAEVSHMKKQKLKLKDEIHSMIIEYREK [H24I] | 1.22
